Laboratory results from the supplement of paper PMC10567573.

B1: FBXO3 (parent)
chain: AGGFQQRQGLKYCLPLTFCIHTGL
B2: RAB11A (parent)
chain: AVPTDEARAFAEKNGLSFIETSAL

Variants of: B1
Experiment: protein stability index of a GFP-peptide fusion (GPS, HEK-293T) (PSI 1-6); higher = more stable
Conditions: c terminus: a fixed tail appended
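Note: lentivirally expressed fusions sorted by FACS into six bins by GFP to DsRed ratio, PSI derived from sequencing read proportions per bin multiplied by bin number.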

Row | Variant | protein stability index
1 | AGGFQQRQGLKYCLPLTFCIHTIL [G23I] | 1.85
2 | AGGFQQRQGLKYCLPLTFCIHTWL [G23W] | 2.97
3 | AGGFQQRQGLKYCLPLTFCIHTEL [G23E] | 2.4
4 | AGGFQQRQGLKYCLPLTFCIHTQL [G23Q] | 3.06
5 | AGGFQQRQGLKYCLPLTFCIHTCL [G23C] | 3.16
6 | AGGFQQRQGLKYCLPLTFCIHTAL [G23A] | 3.52
7 | AGGFQQRQGLKYCLPLTFCIHTKL [G23K] | 2.81
8 | AGGFQQRQGLKYCLPLTFCIHTFL [G23F] | 3.1
9 | AGGFQQRQGLKYCLPLTFCIHTPL [G23P] | 3.02
10 | AGGFQQRQGLKYCLPLTFCIHTML [G23M] | 2.31
11 | AGGFQQRQGLKYCLPLTFCIHTDL [G23D] | 2.58
12 | AGGFQQRQGLKYCLPLTFCIHTNL [G23N] | 2.97
13 | AGGFQQRQGLKYCLPLTFCIHTVL [G23V] | 3.1
14 | AGGFQQRQGLKYCLPLTFCIHTLL [G23L] | 2.67
15 | AGGFQQRQGLKYCLPLTFCIHTRL [G23R] | 3.05
16 | AGGFQQRQGLKYCLPLTFCIHDGL [T22D] | 1.27
17 | AGGFQQRQGLKYCLPLTFCIHKGL [T22K] | 2.49
18 | AGGFQQRQGLKYCLPLTFCIHEGL [T22E] | 2.24
19 | AGGFQQRQGLKYCLPLTFCIHPGL [T22P] | 3.88
20 | AGGFQQRQGLKYCLPLTFCIHHGL [T22H] | 2.17
21 | AGGFQQRQGLKYCLPLTFCIHQGL [T22Q] | 2.23
22 | AGGFQQRQGLKYCLPLTFCIHLGL [T22L] | 2.59
23 | AGGFQQRQGLKYCLPLTFCIHWGL [T22W] | 2.86

Row | Variant | protein stability index
24 | AGGFQQRQGLKYCLPLTFCIHSGL [T22S] | 3.29
25 | AGGFQQRQGLKYCLPLTFCIHMGL [T22M] | 2.18
26 | AGGFQQRQGLKYCLPLTFCIHAGL [T22A] | 1.86
27 | AGGFQQRQGLKYCLPLTFCIHCGL [T22C] | 2.09
28 | AGGFQQRQGLKYCLPLTFCIHRGL [T22R] | 2.2
29 | AGGFQQRQGLKYCLPLTFCIHNGL [T22N] | 3.55
30 | AGGFQQRQGLKYCLPLTFCIHVGL [T22V] | 3.1
31 | AGGFQQRQGLKYCLPLTFCIHYGL [T22Y] | 3.75
32 | AGGFQQRQGLKYCLPLTFCIHTGP [L24P] | 1.88
33 | AGGFQQRQGLKYCLPLTFCIHTGC [L24C] | 2.15
34 | AGGFQQRQGLKYCLPLTFCIHTGM [L24M] | 2.99
35 | AGGFQQRQGLKYCLPLTFCIHTGS [L24S] | 2.14
36 | AGGFQQRQGLKYCLPLTFCIHTGR [L24R] | 2.73
37 | AGGFQQRQGLKYCLPLTFCIHTGN [L24N] | 2.3
38 | AGGFQQRQGLKYCLPLTFCIHTGD [L24D] | 2.42
39 | AGGFQQRQGLKYCLPLTFCIHTGQ [L24Q] | 1.96
40 | AGGFQQRQGLKYCLPLTFCIHTGW [L24W] | 2.7
41 | AGGFQQRQGLKYCLPLTFCIHTGG [L24G] | 2.74
42 | AGGFQQRQGLKYCLPLTFCIHTGH [L24H] | 2.7
43 | AGGFQQRQGLKYCLPLTFCIHTGE [L24E] | 3.16
44 | AGGFQQRQGLKYCLPLTFCIHTGA [L24A] | 2.48
45 | AGGFQQRQGLKYCLPLTFCIHTGT [L24T] | 2.42
46 | AGGFQQRQGLKYCLPLTFCIHTGI [L24I] | 2.69

Row | Variant | protein stability index
47 | AGGFQQRQGLKYCLPLTFCIHTGF [L24F] | 2.33
48 | AGGFQQRQGLKYCLPLTFCIHTGV [L24V] | 3.48
49 | AGGFQQRQGLKYCLPLTFCIHTGY [L24Y] | 2.45
50 | AGGFQQRQGLKYCLPLTFCIHTGK [L24K] | 1.66
51 | AGGFQQRQGLKYCLPLTFCIVTGL [H21V] | 3.83
52 | AGGFQQRQGLKYCLPLTFCIDTGL [H21D] | 2.99
53 | AGGFQQRQGLKYCLPLTFCIWTGL [H21W] | 2.15
54 | AGGFQQRQGLKYCLPLTFCITTGL [H21T] | 2.59
55 | AGGFQQRQGLKYCLPLTFCILTGL [H21L] | 2.46
56 | AGGFQQRQGLKYCLPLTFCISTGL [H21S] | 2.72
57 | AGGFQQRQGLKYCLPLTFCIQTGL [H21Q] | 2.73
58 | AGGFQQRQGLKYCLPLTFCIETGL [H21E] | 1.98
59 | AGGFQQRQGLKYCLPLTFCICTGL [H21C] | 3.66
60 | AGGFQQRQGLKYCLPLTFCIGTGL [H21G] | 2.73
61 | AGGFQQRQGLKYCLPLTFCIKTGL [H21K] | 2.03
62 | AGGFQQRQGLKYCLPLTFCIITGL [H21I] | 2.36
63 | AGGFQQRQGLKYCLPLTFCIMTGL [H21M] | 1.72
64 | AGGFQQRQGLKYCLPLTFCIFTGL [H21F] | 3.32
65 | AGGFQQRQGLKYCLPLTFCIYTGL [H21Y] | 3.41
66 | AGGFQQRQGLKYCLPLTFCIPTGL [H21P] | 2.76
67 | AGGFQQRQGLKYCLPLTFCWHTGL [I20W] | 1.25

Variants of: B2
Experiment: as above
Conditions: c terminus: a fixed tail appended

Row | Variant | protein stability index
68 | AVPADEARAFAEKNGLSFIETSAL [T4A] | 2.04
69 | AVPYDEARAFAEKNGLSFIETSAL [T4Y] | 2.11
70 | AVPVDEARAFAEKNGLSFIETSAL [T4V] | 1.93
71 | AVPGDEARAFAEKNGLSFIETSAL [T4G] | 2.52
72 | AVPWDEARAFAEKNGLSFIETSAL [T4W] | 1.93
73 | AVPRDEARAFAEKNGLSFIETSAL [T4R] | 2.02
74 | AVPMDEARAFAEKNGLSFIETSAL [T4M] | 2.12
75 | AVPNDEARAFAEKNGLSFIETSAL [T4N] | 2.22
76 | AVPHDEARAFAEKNGLSFIETSAL [T4H] | 2.6
77 | AVPIDEARAFAEKNGLSFIETSAL [T4I] | 2.28
78 | AVPLDEARAFAEKNGLSFIETSAL [T4L] | 2.79
79 | AVPKDEARAFAEKNGLSFIETSAL [T4K] | 2.39
80 | AVPPDEARAFAEKNGLSFIETSAL [T4P] | 2.43
81 | AVPQDEARAFAEKNGLSFIETSAL [T4Q] | 2.84
82 | AVPSDEARAFAEKNGLSFIETSAL [T4S] | 2.23
83 | AVPDDEARAFAEKNGLSFIETSAL [T4D] | 2.84
84 | AVPCDEARAFAEKNGLSFIETSAL [T4C] | 1.89
85 | AVPEDEARAFAEKNGLSFIETSAL [T4E] | 2.75
86 | AVPFDEARAFAEKNGLSFIETSAL [T4F] | 2.06
87 | AVPTYEARAFAEKNGLSFIETSAL [D5Y] | 2.15
88 | AVPTWEARAFAEKNGLSFIETSAL [D5W] | 1.49
89 | AVPTREARAFAEKNGLSFIETSAL [D5R] | 1.99
90 | AVPTFEARAFAEKNGLSFIETSAL [D5F] | 1.92
91 | AVPTMEARAFAEKNGLSFIETSAL [D5M] | 1.72
92 | AVPTGEARAFAEKNGLSFIETSAL [D5G] | 1.94
93 | AVPTIEARAFAEKNGLSFIETSAL [D5I] | 2.04
94 | AVPTEEARAFAEKNGLSFIETSAL [D5E] | 2.35
